The results in this text go back to publication PMC5758903.

In data set [1] the target is T1, HisTag-PCNA (human, UniProt P12004 1-261). The data set can be described thus: pull-down.
Data set [2] addresses PCNA (tag-free);DNA polymerase delta (human;human, UniProt P12004;P28340;P49005;Q15054;Q9HCU8 1-261;1-1107;1-469;1-466;1-107, |). Briefly: EMSA.
Data set [3] deals with T1, HisTag-PCNA. Briefly: ITC. A general note: ITC needs no label: the signal is the heat of the interaction.
For the next data set, the target named is DNA polymerase delta (human, UniProt P28340;P49005;Q15054;Q9HCU8 1-1107;1-469;1-466;1-107). The data set can be described thus: EMSA.
Sequence of DNA polymerase delta (P28340 whole entry, stated change not applied, chain 1 of 4): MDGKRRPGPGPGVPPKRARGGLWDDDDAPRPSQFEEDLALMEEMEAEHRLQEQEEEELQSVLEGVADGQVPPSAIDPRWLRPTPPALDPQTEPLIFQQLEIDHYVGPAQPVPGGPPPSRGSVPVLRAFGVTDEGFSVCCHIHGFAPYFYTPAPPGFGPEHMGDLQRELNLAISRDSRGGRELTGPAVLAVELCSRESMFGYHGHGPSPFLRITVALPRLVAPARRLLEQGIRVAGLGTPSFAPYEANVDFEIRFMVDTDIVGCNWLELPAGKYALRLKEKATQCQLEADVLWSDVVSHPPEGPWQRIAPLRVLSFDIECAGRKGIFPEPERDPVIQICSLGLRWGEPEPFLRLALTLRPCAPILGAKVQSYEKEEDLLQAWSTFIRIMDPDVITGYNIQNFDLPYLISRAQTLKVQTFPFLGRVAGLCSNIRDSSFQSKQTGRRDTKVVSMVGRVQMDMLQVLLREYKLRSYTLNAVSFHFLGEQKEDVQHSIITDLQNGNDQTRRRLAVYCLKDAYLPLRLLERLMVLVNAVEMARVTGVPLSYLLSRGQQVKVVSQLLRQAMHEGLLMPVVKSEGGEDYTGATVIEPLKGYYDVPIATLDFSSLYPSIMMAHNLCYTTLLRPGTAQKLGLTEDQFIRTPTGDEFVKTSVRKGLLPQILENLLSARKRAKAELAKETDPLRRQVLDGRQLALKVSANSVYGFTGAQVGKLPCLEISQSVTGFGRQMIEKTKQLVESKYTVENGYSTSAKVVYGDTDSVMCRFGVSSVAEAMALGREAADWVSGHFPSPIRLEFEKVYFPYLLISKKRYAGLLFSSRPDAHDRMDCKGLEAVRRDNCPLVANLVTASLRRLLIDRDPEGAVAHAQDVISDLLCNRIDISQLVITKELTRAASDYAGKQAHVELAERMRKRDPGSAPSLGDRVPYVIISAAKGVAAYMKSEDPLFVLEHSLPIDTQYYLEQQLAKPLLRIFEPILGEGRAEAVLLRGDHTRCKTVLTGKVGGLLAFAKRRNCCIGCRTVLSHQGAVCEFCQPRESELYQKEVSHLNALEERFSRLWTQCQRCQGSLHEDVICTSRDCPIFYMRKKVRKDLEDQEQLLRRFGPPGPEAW
Sequence of DNA polymerase delta (P49005 whole entry, stated change not applied, chain 2 of 4): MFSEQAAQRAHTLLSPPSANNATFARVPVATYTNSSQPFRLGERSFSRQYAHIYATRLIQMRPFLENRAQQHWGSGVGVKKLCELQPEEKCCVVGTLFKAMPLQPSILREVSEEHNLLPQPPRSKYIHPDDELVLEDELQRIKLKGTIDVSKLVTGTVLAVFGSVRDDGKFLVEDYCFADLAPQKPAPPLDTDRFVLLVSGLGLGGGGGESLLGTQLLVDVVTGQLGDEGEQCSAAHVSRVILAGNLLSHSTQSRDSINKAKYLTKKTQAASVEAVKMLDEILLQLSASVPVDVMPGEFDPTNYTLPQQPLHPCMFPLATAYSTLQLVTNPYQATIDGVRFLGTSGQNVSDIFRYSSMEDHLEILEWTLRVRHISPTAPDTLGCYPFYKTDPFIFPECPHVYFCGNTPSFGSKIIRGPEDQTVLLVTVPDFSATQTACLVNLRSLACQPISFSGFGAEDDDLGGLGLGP
Sequence of DNA polymerase delta (Q15054 whole entry, stated change not applied, chain 3 of 4): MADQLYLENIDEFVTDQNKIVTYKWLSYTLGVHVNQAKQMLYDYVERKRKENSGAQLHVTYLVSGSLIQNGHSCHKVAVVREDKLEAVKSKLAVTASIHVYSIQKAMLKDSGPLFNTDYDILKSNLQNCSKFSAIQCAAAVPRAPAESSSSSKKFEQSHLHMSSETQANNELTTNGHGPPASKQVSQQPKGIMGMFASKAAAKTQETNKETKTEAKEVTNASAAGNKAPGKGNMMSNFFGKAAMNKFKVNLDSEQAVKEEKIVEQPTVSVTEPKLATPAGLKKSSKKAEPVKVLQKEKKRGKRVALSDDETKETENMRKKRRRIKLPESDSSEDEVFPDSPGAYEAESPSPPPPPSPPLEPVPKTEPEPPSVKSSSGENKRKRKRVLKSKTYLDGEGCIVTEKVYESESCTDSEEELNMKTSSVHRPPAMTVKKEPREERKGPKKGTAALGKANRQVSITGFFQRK
Sequence of DNA polymerase delta (Q9HCU8 whole entry, stated change not applied, chain 4 of 4): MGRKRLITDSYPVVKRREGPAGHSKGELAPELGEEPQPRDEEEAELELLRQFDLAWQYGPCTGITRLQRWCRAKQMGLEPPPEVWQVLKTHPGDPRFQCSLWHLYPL
The target of data set [4] is T1, HisTag-PCNA. The data set can be described thus: pull-down titration.

T1 sequence (P12004 whole entry): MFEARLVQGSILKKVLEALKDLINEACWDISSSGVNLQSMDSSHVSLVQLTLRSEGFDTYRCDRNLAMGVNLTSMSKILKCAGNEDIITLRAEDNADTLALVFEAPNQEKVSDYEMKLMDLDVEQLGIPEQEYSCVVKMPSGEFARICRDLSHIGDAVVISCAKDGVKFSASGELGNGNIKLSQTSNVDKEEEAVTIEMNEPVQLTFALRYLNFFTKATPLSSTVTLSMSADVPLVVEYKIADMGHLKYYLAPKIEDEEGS

As to CATGCTTCCCCAGGGAGATGCCTATGGTCCCCGCGTAGG (structured_DNA) [A1 -40/3'], in the data set with HisTag-PCNA [1], the binding result was “no binding”.

B1: A1 -20/5' (structured_DNA)
DNA: CCTATGGTCCCCGCGTAGGTGGCAGCTCAAACCCGATTCGAGGAACATGCGTCGCAAAC
Consider B1, for which, in the data set with HisTag-PCNA [1], the binding result is listed as “no binding”.

B2: Ref aptamer (ssDNA)
DNA: ACTGACTGACTGACTGACTGACTGACTGACTGACTGACTGACTGACTGACTGACTGACTGACTGACTGACTGACTGACT
As to B2, in the data set with HisTag-PCNA [1], the binding result is given as “no binding”.

By Kd is commonly meant the free concentration of one partner at which half of the binding sites on the other are occupied at equilibrium, for simple one-to-one binding. High values mean weaker binding, low ones tighter binding. As for CATGCTTCCCCAGGGAGATGCCTATGGTCCCCGCGTAGGTGGCAGCTCA (structured_DNA) [alpha-PCNA aptamer (A1 -30/3')], the binding result was “binds” in data set [2] and “no binding” with DNA polymerase delta. The Kd with HisTag-PCNA [3] amounted to 2 ± 0.64 µM; with HisTag-PCNA [4], 5.1 ± 0.59 µM.
